Source: US20240400698A1, “ANTI-CHEMOKIN LIKE RECEPTOR 1 ANTIBODIES AND THEIR THERAPEUTIC APPLICATIONS” (OSE IMMUNOTHERAPEUTICS, priority 2018, published 2024)

How the values were obtained:
[1] = test system: C57BI/6 male mice, colitis induced by TNBS; experiment: Acute inflammatory colitis model induced by TNBS; type: in vivo; conditions: FIG. 3, 2G1 10 μg, RvE1 1 μg per mouse i.p.
Experimental: FIG. 3. […] Mice received 200 μL of the haptenating agent TNBS at 5% in 50% ethanol on day 0 and then were injected with isotype control hIgG1 (10 μg per mouse) (x), RvE1 (1 μg per mouse) daily (•), or 2G1 antibody (10 μg per mouse) three times ( ) for 5 days, or non-treated (wild type animals) (▾). Mice were sacrificed colon length was measured in each condition.
Colitis was induced in 8-10 weeks-old-C57BI/6 male mice by intrarectal injection of 200 μL of the haptenating agent TNBS at 5% in 50% ethanol on day 0. Treatments were injected intra-peritoneally; RvE1 (1 μg per mouse) daily for three days, or 2G1 antibody (10 μg per mouse) twice for 3 days. Colitis follow-up consisting of body weight and stool score (0: normal stool; 4: blood in stool) parameters were performed daily (data not represented). When mice are euthanized, colon length representing the pathology severity was measured.

[2] = test system: NOD female mice, spontaneous type 1 diabetes; experiment: Type 1 diabetes NOD model; type: in vivo; conditions: 20 μg/injection i.p. three times a week for 2 weeks
Excerpt: FIG. 5. […] Mice develop spontaneous diabetes. […] A. Percentage of survival, B. individual representation of blood glucose concentration in mg/dL. C. pooled representation of blood glucose concentration in mg/dL.
8 weeks-old NOD female mice were obtained from Charles River laboratory. These mice develop a spontaneous type 1 diabetes at age between 12 to 20 weeks. The diabetes initiation can be measured by the high glycaemia.

4T1 cells = experiment: Orthotopic 4T1 mammary carcinoma model, primary tumor and metastasis; type: in vivo, mice
Experimental: FIG. 8. […] Mice were inoculated with 4T1 cells (0.25 millions) in the mammary gland. […] A. The tumor area was measured 8 days after tumor injection and then every 2 days. B. Tumor lung metastasis was measured by Bioluminescence imaging (BLI) in animals treated with isotype control and anti-CMKLR1 antibody (n=4).
Mice were anesthetized with 3% of isoflurane. Mice were shaved on the abdomen and 4T1 cells (0.25 millions) were injected in the mammary gland with an insulinic syringe (30 Gauges) in 50 μL of PBS. […] In a second study to measure the lung metastasis following mammary carcinoma development, animals were treated with anti-CMKLR1 antibody at 0.8 mg/kg or control antibody (100 μg/injection) three times a week for three weeks.

CT26 cells = experiment: CT26 colon carcinoma model; type: in vivo, mice; conditions: FIG. 9A-C, 20 μg/injection i.p. for 3 weeks
Experimental: (§1) FIG. 9. […] Two mice models were studied, and animals received isotype control antibody (3G8) (x) or anti-CMKLR1 (2G1) ( ) at 20 μg/injection intraperitoneally for 3 weeks. A-C. Results in the CT26 colon carcinoma model comparing single treatment with p84 (A) and 2G1 (B) with combined therapy with both antibodies (C). D: Results in the MC38 colon carcinoma model.
(§2) 8-week old C57bl/6J male mice were anesthetized with 3% of isoflurane. Mice were shaved on the flank and MC38 cells (0.5·10^6 cells/mouse) cell lines were injected subcutaneously with an insulinic syringe (30 Gauges) in 50 μL of PBS. Another model was used, in which 8-week old Balb/c male mice were anesthetized with 3% of isoflurane. Mice were shaved on the flank and CT26 cells (1·10^6 cells/mouse) were injected subcutaneously with an insulinic syringe (30 Gauges) in 50 μL of PBS.
(§3) The agonistic anti-CMKLR1 antibody (2G1) or an anti-SIRPa antibody (p84-anti-mouse SIRPa from Merck Millipore) (SIRPa is a new checkpoint inhibitor) were injected once a week (20 μg/injection) intraperitoneally for 3 weeks starting at d4 after tumor inoculation alone or combined.

MC38 cells = experiment: MC38 colon carcinoma model; type: in vivo, mice; conditions: FIG. 9D, 20 μg/injection i.p. for 3 weeks, vs isotype control
Experimental: as §1, §2, §3

[3] = test system: Akt and Erk proteins (CMKLR1 pathway); experiment: Western blot of Akt and Erk phosphorylation in mice M1 macrophages; type: cell-based; conditions: FIG. 18; mice M1, 2 μg/mL, after 10 to 30 minutes of incubation
Experimental: FIG. 18. Study of the CMKLR1 pathway activation: Akt and Erk phosphorylation. Western blot analysis of the ERK and AKT activation pathway after 5, 10 and 30 minutes of mice M1 cell incubation with 2G1 or RvE1. The Phosphorylated protein Akt or Erk were assessed using P-Akt antibody or P-Erk antibody (p44/42). A. Erk and Akt activation with RvE1. B. Erk and Akt activation with 2G1.
Mice pro-inflammatory macrophages (M1) were generated from bone marrow with M-CSF and polarized with IFN-gamma (IFNg) and LPS. Briefly, bone marrow cells were collected by flushing the femoral bone and cultured with 100 ng/mL of mM-CSF for 5 days and then polarized with 20 ng/ml of IFNg and 100 ng/mL of LPS for 24 h. Then, they were deprived of FBS for 24 hours with RPMI FBS 2% medium. Finally, mice M1 were treated with 2 μg/mL of 2G1 antibody at different times: 5, 10 and 30 minutes. Cells were collected in a RIPA buffer. The protein concentration was measured by a BCA protein kit assay. Proteins were denatured by heating at 95° C. for 5 minutes and diluted in DTT and Laemmli solution. After migration and transfer, the nitrocellulose membrane was blocked with 5% BSA in TBS-T for 2 hours. […] Western blot Images were quantified by Multi Gauge software

[4] = test system: Rag1 knock-out mice, CD45Rb high CD4 T cell transfer colitis; experiment: CD45Rb high T-cell transfer chronic colitis mouse model; type: in vivo; conditions: FIG. 21; 1 mg/kg three times a week for 3 weeks from day 32; control mice start to lose weight
Experimental: Weight variation of treated animals was followed up to sixty days. Animals were treated with isotype control hIgG1 (x) or anti-CMKLR1 antibody (=).
Method: CD45Rb^high CD4 T cells were isolated from the spleen of naive mice and sorted on an ARIA FACS after a negative selection of the CD4 T cells by magnetic sorting, then injected intraperitoneally at 0.5·10^6 cells in 100 μL of PBS into 6-weeks old female Rag1 knock-out mice. Anti-CMKLR1 antibody (2G1) or an isotype control were administered from day 32 after the CD45Rb^high CD4 T cell transfer for 3 weeks three times a week at 1 mg/kg. The follow-up of weight was evaluated three times a week and the weight variation was determined over the initial weight. * p<0.05, ** p<0.01.

B1: 2G1: chimeric anti-CMKLR1 antibody, murine variable regions (SEQ ID No: 10 and 17), human IgG1 constant regions; VH-CDR3 variant LI (antibody, V domains shown)
VH: METDTLLLWVLLLWVPGSTGDEVQLVASGGGLVQPGGSLKLSCAASGFTFSSYGMSWVRQTPDRRLELVATINRYGGSTYYPDSVKGRFTISRDNAKNTLYLQMSSLKSEDTAMYYCPRLIYYGNEGDSWGQGTTLTVSS
VL: METDTLLLWVLLLWVPGSTGDQIVLTQSPAIMSASPGEKVTMTCSASSSVSFMHWYQQKSGTSPKRWIYDTTKLTSGVPARFSGSGSGTFYSLTISSMEAEDAATYYCQQWNSKPPLTFGPGTKLELKR
modifications: human IgG1 constant regions
notes: VH-CDR3 variant LI
[1]
  colon length: the same as normal animal (wt)
[2]; FIG. 5A
  survival percentage: better survival percentage
[2]; FIG. 5B-C
  glycaemia (blood glucose concentration): almost normal glycaemia
4T1 cells; 4T1 mammary carcinoma, FIG. 8A, 10 μg/injection at day 4 and day 7, vs isotype control
  tumor growth (tumor area): did not show any improvement in the tumor growth
4T1 cells; 4T1 model, FIG. 8B, 0.8 mg/kg three times a week for three weeks, vs control antibody
  lung metastasis by bioluminescence imaging: reduces the lung metastasis
4T1 cells; 4T1 model, data not shown, two animals in the control have metastasis
  lymph node metastasis: no animals treated with the anti-CMKLR1 compound has metastasis
CT26 cells
  tumor development / tumor growth: did not demonstrate a clinical effect on the tumor development
MC38 cells
  tumor growth: did show an efficacy in the inhibition of the tumor growth
[3]
  activation (phosphorylation) of Akt protein: able to induce the activation
  activation (phosphorylation) of Erk protein: able to induce the activation
[4]
  weight variation: continue to gain weight
